In patent US20150139990A1 (DAINIPPON SUMITOMO PHARMA, published 2015):
Changes are numbered by the printed parent chain. In names and notes the source's numbering stands.

B1: 002-A07 IgG4 antibody (antibody)
heavy: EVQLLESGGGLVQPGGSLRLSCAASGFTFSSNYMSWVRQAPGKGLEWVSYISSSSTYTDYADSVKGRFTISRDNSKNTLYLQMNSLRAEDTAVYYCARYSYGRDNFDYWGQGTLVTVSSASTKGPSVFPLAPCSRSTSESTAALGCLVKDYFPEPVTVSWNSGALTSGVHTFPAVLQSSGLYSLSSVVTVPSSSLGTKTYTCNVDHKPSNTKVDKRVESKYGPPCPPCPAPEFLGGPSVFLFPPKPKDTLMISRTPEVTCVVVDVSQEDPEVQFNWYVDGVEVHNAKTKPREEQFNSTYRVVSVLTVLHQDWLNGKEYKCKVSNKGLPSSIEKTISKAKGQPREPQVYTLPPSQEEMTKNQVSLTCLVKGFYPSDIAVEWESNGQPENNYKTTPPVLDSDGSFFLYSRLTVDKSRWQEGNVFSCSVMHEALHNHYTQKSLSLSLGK
light: QSVLTQPPSASGTPGQRVTISCTGSTSNIGAGYDTHWYQQLPGTAPKLLIYGNSNRPSGVPDRFSGSKSGTSASLAISGLRSEDEADYYCQSYDTNLSVWVFGGGTKLTVLGQPKAAPSVTLFPPSSEELQANKATLVCLISDFYPGAVTVAWKADSSPVKAGVETTTPSKQSNNKYAASSYLSLTPEQWKSHRSYSCQVTHEGSTVEKTVAPTECS
notes: human IgG4 S228P, lambda light chain
B2: 002-A07 N113G (antibody, human IgG4 S228P, lambda, V domains shown)
VH: EVQLLESGGGLVQPGGSLRLSCAASGFTFSSNYMSWVRQAPGKGLEWVSYISSSSTYTDYADSVKGRFTISRDNSKNTLYLQMNSLRAEDTAVYYCARYSYGRDNFDYWGQGTLVTVSS
VL: QSVLTQPPSASGTPGQRVTISCTGSTSNIGAGYDTHWYQQLPGTAPKLLIYGNSNRPSGVPDRFSGSKSGTSASLAISGLRSEDEADYYCQSYDTGLSVWVFGGGTKLTVLG
notes: IgG4 S228P; glycosylation site mutant of 002-A07 VL
B3: 002-A07 N113Q (antibody, human IgG4 S228P, lambda, V domains shown)
VH: B2 VH
VL: B2 VL with G96Q
notes: as for B2
B4: 002-A07 N113S (antibody, human IgG4 S228P, lambda, V domains shown)
VH: B2 VH
VL: B2 VL with G96S
notes: as for B2
B5: 002-A07 S115A (antibody, human IgG4 S228P, lambda, V domains shown)
VH: B2 VH
VL: B2 VL with G96N, S98A
notes: as for B2
B6: 002-A07 S115G (antibody, human IgG4 S228P, lambda, V domains shown)
VH: B2 VH
VL: B2 VL with G96N, S98G
notes: as for B2
B7: 003-D07 (antibody, human IgG4 S228P, lambda, V domains shown)
VH: B2 VH with G102D
VL: B2 VL with P8F, Q40H, G96N
notes: IgG4 S228P

These binders were tested against T1, human CD81 on CD81-expressing cells (Jurkat E6.1, human PBMC, Ramos) (human, UniProt P60033 1-236) (assay: cell-based or functional assay).
T1 sequence: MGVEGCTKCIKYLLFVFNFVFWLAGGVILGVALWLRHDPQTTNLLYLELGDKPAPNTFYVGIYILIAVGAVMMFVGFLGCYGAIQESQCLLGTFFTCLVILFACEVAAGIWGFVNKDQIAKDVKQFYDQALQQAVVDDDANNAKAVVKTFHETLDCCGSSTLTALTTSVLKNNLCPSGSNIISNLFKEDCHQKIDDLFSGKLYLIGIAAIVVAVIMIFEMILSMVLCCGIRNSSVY

| Binder | Jurkat chemotaxis (% of control IgG4) at 0.001 µg/mL [%] | Jurkat chemotaxis (% of control IgG4) at 0.01 µg/mL [%] | Jurkat chemotaxis (% of control IgG4) at 0.1 µg/mL [%] | Jurkat chemotaxis (% of control IgG4) at 1 µg/mL [%] | Jurkat chemotaxis (% of control IgG4) at 10 µg/mL [%] |
| --- | --- | --- | --- | --- | --- |
| B1 | 90 | 93 | 21 | -2 | 3 |
| B2 | 99 | 101 | 38 | 13 | 7 |
| B3 | 104 | 99 | 37 | 13 | 12 |
| B4 | 99 | 101 | 40 | 13 | 12 |
| B5 | 82 | 78 | 32 | -4 | -9 |
| B6 | 84 | 74 | 13 | -9 | -3 |
| B7 | 87 | 79 | 42 | -5 | -9 |

The binders below were run against T2, human CD81 mutant I194A (human, UniProt P60033 1-236, limits assumed) (assay: ELISA).
T2 construct: as m30; not shown: C-terminal V5 and 6xHis tags
T2 sequence: T1 sequence with I194A

| Binder | relative binding affinity [%] |
| --- | --- |
| B1 | < 20 |
| B2 | < 20 |
| B3 | < 20 |
| B4 | < 20 |
| B5 | < 20 |
| B6 | < 20 |
| B7 | < 20 |

Each binder was assayed against T3, human CD81 mutant V169A (human, UniProt P60033 1-236, limits assumed) (assay: ELISA).
T3 construct: as m30; not shown: C-terminal V5 and 6xHis tags
T3 sequence: T1 sequence with V169A

| Binder | relative binding affinity [%] |
| --- | --- |
| B1 | < 20 |
| B2 | < 20 |
| B3 | < 20 |
| B4 | < 20 |
| B5 | < 20 |
| B6 | < 20 |
| B7 | < 20 |

What follows are binders tested against T4, human CD81 mutant D137E (human, UniProt P60033 1-236, limits assumed) (assay: ELISA).
T4 construct: as m30; not shown: C-terminal V5 and 6xHis tags
T4 sequence: T1 sequence with D137E

| Binder | relative binding affinity [%] |
| --- | --- |
| B1 | < 20 |
| B2 | < 20 |
| B3 | < 20 |
| B4 | < 20 |
| B5 | < 20 |
| B6 | < 20 |

The binders below were run against T5, human CD81 mutant V135L (human, UniProt P60033 1-236, limits assumed) (assay: ELISA).
T5 construct: as m30; not shown: C-terminal V5 and 6xHis tags
T5 sequence: T1 sequence with V135L

| Binder | relative binding affinity [%] |
| --- | --- |
| B1 | < 20 |
| B2 | < 20 |
| B3 | < 20 |
| B4 | < 20 |
| B5 | < 20 |
| B6 | < 20 |
| B7 | < 20 |

The binders below were run against T6, human CD81 mutant V169L (human, UniProt P60033 1-236, limits assumed) (assay: ELISA).
T6 construct: as m30; not shown: C-terminal V5 and 6xHis tags
T6 sequence: T1 sequence with V169L

| Binder | relative binding affinity [%] |
| --- | --- |
| B1 | < 20 |
| B2 | < 20 |
| B3 | < 20 |
| B4 | < 20 |
| B5 | < 20 |
| B6 | < 20 |
| B7 | < 20 |

What follows are binders tested against T7, human CD81 mutant A164V (human, UniProt P60033 1-236, limits assumed) (assay: ELISA).
T7 construct: as m30; not shown: C-terminal V5 and 6xHis tags
T7 sequence: T1 sequence with A164V

| Binder | relative binding affinity [%] |
| --- | --- |
| B1 | < 20 |
| B2 | < 20 |
| B3 | < 20 |
| B4 | < 20 |
| B5 | < 20 |
| B6 | < 20 |
| B7 | < 20 |

What follows are binders tested against T8, human CD81 mutant H151R (human, UniProt P60033 1-236, limits assumed) (assay: ELISA).
T8 construct: as m30; also called H151B; not shown: C-terminal V5 and 6xHis tags
T8 sequence: T1 sequence with H151R

| Binder | relative binding affinity [%] |
| --- | --- |
| B1 | < 20 |
| B2 | < 20 |
| B3 | < 20 |
| B4 | < 20 |
| B5 | < 20 |
| B6 | < 20 |
| B7 | < 20 |

Each binder was assayed against T9, human CD81 mutant S168T (human, UniProt P60033 1-236, limits assumed) (assay: ELISA).
T9 construct: as m30; not shown: C-terminal V5 and 6xHis tags
T9 sequence: T1 sequence with S168T

| Binder | relative binding affinity [%] |
| --- | --- |
| B1 | < 20 |
| B2 | < 20 |
| B3 | < 20 |
| B4 | < 20 |
| B5 | < 20 |
| B6 | < 20 |

Each binder was assayed against T10, human CD81 mutant G158A (human, UniProt P60033 1-236, limits assumed) (assay: ELISA).
T10 construct: as m30; not shown: C-terminal V5 and 6xHis tags
T10 sequence: T1 sequence with G158A

| Binder | relative binding affinity [%] |
| --- | --- |
| B1 | < 20 |
| B2 | < 20 |
| B3 | < 20 |
| B4 | < 20 |
| B5 | < 20 |
| B6 | < 20 |
